In publication PMC2266763, “Dimerization of the transmembrane domain of amyloid precursor proteins and familial Alzheimer's disease mutants” (BMC Neuroscience, 2008):

B1: wild-type APP-TM peptide [modified: acceptor version: Glu with the fluorescent group EDANS covalently linked to its sidechain, after the N-terminal Lys-tag (in place of the Trp of the donor version); acceptor version: Glu with … (parent)
chain: GAIIGLMVGGVVIATVIVITLVML
B2: wild-type APP-TM peptide [modified: acceptor version: Glu with the fluorescent group EDANS covalently linked to its sidechain, after the N-terminal Lys-tag (in place of the Trp of the donor version); acceptor version: Glu with … (parent)
chain 1: GAIIGLMVGGVVIATVIVITLVML
chain 2: GAIIGLMVGGVVIATVIVITLVML

Variants of: B1
Experiment: FRET
Conditions: with itself; 50 µM total peptide concentration; homodimer (solid bar); parent: 0.73; read off a plot

Row | Variant | response
1 | chain 1 T15I | 0.42 A/D ratio

Variants of: B2
Experiment: FRET
Conditions: 50 µM total peptide concentration, equimolar wild-type and mutant (open bar), parent: 0.73, read off a plot

Row | Variant | response
2 | chain 1 V18F | 0.43 A/D ratio
3 | chain 1 V18G | 1.6 A/D ratio
4 | chain 1 T15I | 0.44 A/D ratio

Same assay, conditions: 20 mM SDS, equimolar Trp-labeled wild-type and Edans-labeled V717G, 50 µM total peptide concentration (highest point of the curve), read off a plot

Row | Variant | response
5 | chain 1 V18G | 1.6 A/D ratio
